Positions count from the first letter of the chain named. Numbers in names are those of the source.
B1: nuclease-deactivated AsCas12f1 variant (D225A) (enzyme)
chain: MIKVYRYEIVKPLDLDWKEFGTILRQLQQETRFALNKATQLAWEWMGFSSDYKDNHGEYPKSKDILGYTNVHGYAYHTIKTKAYRLNSGNLSQTIKRATDRFKAYQKEILRGDMSIPSYKRDIPLDLIKENISVNRMNHGDYIASLSLLSNPAKQEMNVKRKISVIIIVRGAGKTIMDRILSGEYQVSASQIIHDDRKNKWYLNISYDFEPQTRVLDLNKIMGIALGVAVAVYMAFQHTPARYKLEGGEIENFRRQVESRRISMLRQGKYAGGARGGHGRDKRIKPIEQLRDKIANFRDTTNHRYSRYIVDMAIKEGCGTIQMEDLTNIRDIGSRFLQNWTYYDLQQKIIYKAEEAGIKVIKIDPQYTSQRCSECGNIDSGNRIGQAIFKCRACGYEANADYNAARNIAIPNIDKIIAESIK
B2: Acidibacillus sulfuroxidans Cas12f1, wild type (enzyme)
chain: B1 chain with A225D

Tests used:
cryo-EM structure = molecular target: the molecule itself; test: cryo-EM structure
SEC = molecular target: the molecule itself; test: SEC

Protein | binding result (cryo-EM structure) | stoichiometry N (SEC)
B1 | binds | –
B2 | – | 2
